According to article PMC7069974:

Target: His-flXPA (human) (UniProt P23025)
Experiment: AFM
Details: single dG-C8-AAF at 30% from 3' end; EMSA: 8 nM DNA, 20 mM HEPES pH 7.5, 150 mM NaCl, 5 mM DTT, 0.5 mg/ml BSA, 5% glycerol, 25 min at room temperature; gel 5% native, 0.5x TBE, 4 C. AFM: 100 nM …; scale: fold specificity for dG-C8-AAF over non-damaged DNA

Chain of His-flXPA (human) (P23025 whole entry): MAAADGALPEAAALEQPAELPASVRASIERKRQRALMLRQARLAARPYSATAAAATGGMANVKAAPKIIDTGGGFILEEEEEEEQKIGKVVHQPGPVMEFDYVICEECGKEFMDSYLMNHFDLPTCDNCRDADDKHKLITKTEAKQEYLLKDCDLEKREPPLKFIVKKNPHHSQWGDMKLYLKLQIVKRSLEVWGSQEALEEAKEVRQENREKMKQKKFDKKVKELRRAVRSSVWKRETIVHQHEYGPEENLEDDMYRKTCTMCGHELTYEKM

## AAF538
  binding signal: 660
